Drawing on article PMC12812394, this text covers luminescence, fold over the negative controls for one molecule.

The test addresses Pi65-nLUC (rice (Oryza sativa ssp. japonica cv. GY129)). Description: split reporter (BiFC, NanoBiT); NanoLuc luciferase complementation (nLUC/cLUC fusions, 35S promoter) in co-infiltrated Nicotiana benthamiana leaves, 48-72 h at 22 °C; whole-leaf luminescence with furimazine, 1-min exposure.

B1: OsAPx4-cLUC (enzyme)
chain: MAAPVVDAEYLRQVDRARRHLRALISSKGCAPIMLRLAWHDAGTYDVNTKTGGANGSIRYEEEYTHGSNAGLKIAIDLLEPIKAKSPKITYADLYQLAGVVAVEVTGGPTVEFIPGRRDSSVCPREGRLPDAKKGALHLRDIFYRMGLSDKDIVALSGGHTLGRAHPERSGFEGAWTQEPLKFDNSYFLELLKGESEGLLKLPTDKALLEDPSFRRYVDLYARDEDTFFKDYAESHKKLSELGFTPRSSGPASTKSDLSTGAVLAQSAVGVAVAAAVVIVSYLYEASKKSK
As for B1, the luminescence, fold over the negative controls was 12.3 fold.
